T1: human FGFR2b ECD (human, UniProt P21802)
T1 chain: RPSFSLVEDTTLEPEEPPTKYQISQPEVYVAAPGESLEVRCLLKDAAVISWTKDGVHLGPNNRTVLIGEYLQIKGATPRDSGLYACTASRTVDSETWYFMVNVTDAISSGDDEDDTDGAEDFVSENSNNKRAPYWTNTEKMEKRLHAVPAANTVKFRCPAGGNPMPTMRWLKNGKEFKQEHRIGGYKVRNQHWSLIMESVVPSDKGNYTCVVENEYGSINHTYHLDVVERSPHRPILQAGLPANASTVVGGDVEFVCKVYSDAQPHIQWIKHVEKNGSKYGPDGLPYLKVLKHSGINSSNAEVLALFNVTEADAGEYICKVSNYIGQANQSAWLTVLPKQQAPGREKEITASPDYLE

T2: human FGFR3b (alpha IIIb) (human, UniProt P22607)
T2 chain: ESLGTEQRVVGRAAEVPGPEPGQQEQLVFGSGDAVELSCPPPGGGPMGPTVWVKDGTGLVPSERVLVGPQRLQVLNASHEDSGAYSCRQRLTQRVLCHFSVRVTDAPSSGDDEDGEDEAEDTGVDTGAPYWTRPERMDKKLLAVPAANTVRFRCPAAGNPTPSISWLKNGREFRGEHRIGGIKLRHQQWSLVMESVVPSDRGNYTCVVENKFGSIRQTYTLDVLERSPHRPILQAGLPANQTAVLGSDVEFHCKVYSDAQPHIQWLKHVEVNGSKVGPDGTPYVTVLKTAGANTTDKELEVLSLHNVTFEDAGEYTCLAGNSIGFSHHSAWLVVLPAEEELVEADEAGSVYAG

T3: human FGFR3c (alpha IIIc) (human, UniProt P22607)
T3 chain: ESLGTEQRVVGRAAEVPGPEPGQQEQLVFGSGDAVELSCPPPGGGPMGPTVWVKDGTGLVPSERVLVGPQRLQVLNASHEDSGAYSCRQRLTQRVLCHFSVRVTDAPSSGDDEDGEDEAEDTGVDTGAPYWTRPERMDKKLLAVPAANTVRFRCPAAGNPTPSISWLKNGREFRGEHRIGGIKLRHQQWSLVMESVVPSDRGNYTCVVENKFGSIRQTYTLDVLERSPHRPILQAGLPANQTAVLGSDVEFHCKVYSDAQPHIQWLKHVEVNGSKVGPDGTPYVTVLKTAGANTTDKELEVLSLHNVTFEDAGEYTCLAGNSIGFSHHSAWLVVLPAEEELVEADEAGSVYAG

T4: human FGFR1b (alpha IIIb) (human, UniProt P11362)
T4 chain: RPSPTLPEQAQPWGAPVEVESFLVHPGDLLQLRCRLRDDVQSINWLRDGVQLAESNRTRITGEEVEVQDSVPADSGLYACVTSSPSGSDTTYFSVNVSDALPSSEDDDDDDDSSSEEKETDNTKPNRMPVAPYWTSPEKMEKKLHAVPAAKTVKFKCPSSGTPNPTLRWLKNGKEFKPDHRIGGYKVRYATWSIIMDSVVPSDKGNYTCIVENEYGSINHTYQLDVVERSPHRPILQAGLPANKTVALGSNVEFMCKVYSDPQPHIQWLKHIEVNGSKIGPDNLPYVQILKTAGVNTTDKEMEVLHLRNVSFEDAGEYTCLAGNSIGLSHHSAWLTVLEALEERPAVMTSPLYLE

T5: human FGFR1c (FGFR1/CD331) (human, UniProt P11362)
T5 chain: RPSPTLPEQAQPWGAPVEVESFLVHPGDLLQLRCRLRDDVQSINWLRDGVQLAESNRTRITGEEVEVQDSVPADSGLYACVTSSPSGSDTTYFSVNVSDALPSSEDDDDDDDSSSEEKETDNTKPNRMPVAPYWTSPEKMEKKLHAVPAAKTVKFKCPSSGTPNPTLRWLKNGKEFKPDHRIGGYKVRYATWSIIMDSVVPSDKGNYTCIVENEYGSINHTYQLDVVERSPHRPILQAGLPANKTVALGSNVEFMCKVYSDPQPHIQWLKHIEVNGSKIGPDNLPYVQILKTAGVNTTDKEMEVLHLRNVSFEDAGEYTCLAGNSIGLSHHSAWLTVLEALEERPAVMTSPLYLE


Assays:
[1] = molecular target: T1, human FGFR2b ECD; test: BLI
[2] = molecular target: T2, human FGFR3b (alpha IIIb); test: ELISA
[3] = molecular target: T3, human FGFR3c (alpha IIIc); test: ELISA
[4] = molecular target: FGFR2IIIc on HEK293 cells (human, UniProt P21802); test: FACS
[5] = molecular target: human FGFR2c (alpha IIIc) (human, UniProt P21802); test: ELISA
[6] = molecular target: human FGFR4 (CD334) (human, UniProt P22455); test: ELISA
[7] = molecular target: T4, human FGFR1b (alpha IIIb); test: ELISA
[8] = molecular target: T5, human FGFR1c (FGFR1/CD331); test: ELISA

Chain of human FGFR4 (CD334) (P22455 22-369): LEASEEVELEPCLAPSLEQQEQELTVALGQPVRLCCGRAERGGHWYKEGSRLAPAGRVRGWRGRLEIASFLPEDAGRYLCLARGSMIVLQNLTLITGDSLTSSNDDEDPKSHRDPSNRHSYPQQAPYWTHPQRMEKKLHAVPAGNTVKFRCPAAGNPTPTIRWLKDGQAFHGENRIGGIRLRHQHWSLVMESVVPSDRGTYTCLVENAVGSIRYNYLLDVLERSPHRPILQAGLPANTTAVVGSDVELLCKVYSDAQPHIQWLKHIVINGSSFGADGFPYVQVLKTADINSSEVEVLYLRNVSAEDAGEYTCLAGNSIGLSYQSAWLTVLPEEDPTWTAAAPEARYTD

| Binder | Kd [1] [nM] | binding result [2] | binding result [3] | binding result [4] | binding result [5] | binding result [6] | binding result [7] | binding result [8] |
| --- | --- | --- | --- | --- | --- | --- | --- | --- |
| humAbA1 (antibody, V domains shown) VH: QVQLVQSGAEVKKPGASVKVSCKASGYTFTSYNMHWVRQAPGQGLEWMGSIYPENGDTSYNQKFQDRVTLTRDTSTSTVYMELSSLRSEDTAVYYCARPFDYWGQGTLVTVSS VL: DIQMTQSPSSLSASVGDRVTITCQASQSVGNNLAWYQQKPGKAPKLLIYYASNLYTGVPSRFSGSGSGTDFTFTISSLQPEDIATYYCQQFYSSPYTFGQGTKLEIKR | < 1 | no binding | no binding | no binding | no binding | no binding | no binding | no binding |
| mAb1 (antibody, V domains shown) VH: QAYLQQSGAELVRPGASVKMSCKASGYTFTSYNMHWVKQTPRQGLEWIGSIYPENGDTSYNQKFRDKATLTVDKSSSTAYMQLSSLTSEDSAVYFCARPFDYWGQGTTLTVSS VL: SIVMTQTPKFLPISAGDRVTMTCKASQSVGNNVAWYQQKPGQSPKLLIYYASNRYTGVPDRFTGSGSGTDFTFTISSVQVEDLAVYFCQQFYSSPYTFGSGTKLEIK |  | no binding | no binding | no binding | no binding | no binding | no binding | no binding |

Reference: US20260317428 (published 2026)
